Results taken from patent US20140004107A1 (published 2014).
Residue numbers refer to the chain shown, from its start.

T1: human ST2 (SPR analyte) (human, UniProt Q01638 19-322)
T1 construct: The ST2 reagent injected in SPR; leader is 1-18; also called hu ST2
T1 sequence: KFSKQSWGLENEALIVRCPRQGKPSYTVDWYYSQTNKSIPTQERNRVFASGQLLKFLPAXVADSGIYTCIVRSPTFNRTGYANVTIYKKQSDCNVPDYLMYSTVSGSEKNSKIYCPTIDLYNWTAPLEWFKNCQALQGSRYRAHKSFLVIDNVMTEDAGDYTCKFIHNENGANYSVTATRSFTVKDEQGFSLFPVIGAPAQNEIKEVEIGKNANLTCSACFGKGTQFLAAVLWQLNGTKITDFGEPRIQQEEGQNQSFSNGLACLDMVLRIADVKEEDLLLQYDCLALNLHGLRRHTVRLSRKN

T2: biotinylated human ST2-Fc (human, UniProt Q01638 19-331, biotinylated)
T2 construct: also called ST2-Fc fusion protein; not shown: human antibody Fc domain
T2 sequence: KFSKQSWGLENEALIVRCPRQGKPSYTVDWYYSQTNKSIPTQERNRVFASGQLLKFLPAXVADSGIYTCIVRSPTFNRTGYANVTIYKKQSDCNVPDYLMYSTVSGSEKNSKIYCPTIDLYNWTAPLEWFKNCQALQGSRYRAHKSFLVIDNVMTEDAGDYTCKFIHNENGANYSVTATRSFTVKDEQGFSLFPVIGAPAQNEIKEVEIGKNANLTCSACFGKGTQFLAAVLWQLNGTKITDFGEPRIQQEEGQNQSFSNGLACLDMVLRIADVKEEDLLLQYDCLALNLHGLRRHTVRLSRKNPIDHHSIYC

T3: soluble human ST2-FLAG His (human, UniProt Q01638 19-322, limits assumed)
T3 construct: also called human ST2-FH; 6xhistidine tagged human ST2; not shown: FLAG and 6x histidine tags
T3 sequence: T1 sequence

T4: cynomolgus monkey ST2 (SPR analyte) (cynomolgus monkey, UniProt Q01638 19-322 (human entry))
T4 construct: The cyno ST2 reagent injected in SPR; leader is 1-18; also called cy ST2
T4 chain: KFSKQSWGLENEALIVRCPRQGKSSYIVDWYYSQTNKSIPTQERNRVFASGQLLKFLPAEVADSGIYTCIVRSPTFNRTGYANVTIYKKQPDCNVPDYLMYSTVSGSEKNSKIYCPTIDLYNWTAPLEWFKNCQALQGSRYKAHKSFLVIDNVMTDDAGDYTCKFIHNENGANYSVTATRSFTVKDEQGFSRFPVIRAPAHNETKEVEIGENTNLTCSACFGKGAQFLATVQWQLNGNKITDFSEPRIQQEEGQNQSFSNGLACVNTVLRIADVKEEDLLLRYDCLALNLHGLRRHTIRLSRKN

T5: human ST2 on human primary cells (human, UniProt Q01638 19-556)
T5 sequence: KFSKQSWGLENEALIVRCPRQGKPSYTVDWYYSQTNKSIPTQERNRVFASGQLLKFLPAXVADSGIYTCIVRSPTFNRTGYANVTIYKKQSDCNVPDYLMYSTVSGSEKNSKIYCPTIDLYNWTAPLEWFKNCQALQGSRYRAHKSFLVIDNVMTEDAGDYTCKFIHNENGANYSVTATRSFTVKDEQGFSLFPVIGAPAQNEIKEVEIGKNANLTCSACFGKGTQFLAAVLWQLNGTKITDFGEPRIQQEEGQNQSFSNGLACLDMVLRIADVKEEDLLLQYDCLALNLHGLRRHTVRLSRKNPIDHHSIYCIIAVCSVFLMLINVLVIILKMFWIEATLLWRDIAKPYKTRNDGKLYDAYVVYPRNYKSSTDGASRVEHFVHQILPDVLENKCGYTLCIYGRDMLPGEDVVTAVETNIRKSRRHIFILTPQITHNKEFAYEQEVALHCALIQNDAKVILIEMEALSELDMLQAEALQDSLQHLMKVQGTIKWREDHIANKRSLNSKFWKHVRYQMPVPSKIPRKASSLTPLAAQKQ

T6: cynomolgus monkey ST2 on cynomolgus CD4+ T cells (cynomolgus monkey, UniProt Q01638 19-556 (human entry))
T6 chain: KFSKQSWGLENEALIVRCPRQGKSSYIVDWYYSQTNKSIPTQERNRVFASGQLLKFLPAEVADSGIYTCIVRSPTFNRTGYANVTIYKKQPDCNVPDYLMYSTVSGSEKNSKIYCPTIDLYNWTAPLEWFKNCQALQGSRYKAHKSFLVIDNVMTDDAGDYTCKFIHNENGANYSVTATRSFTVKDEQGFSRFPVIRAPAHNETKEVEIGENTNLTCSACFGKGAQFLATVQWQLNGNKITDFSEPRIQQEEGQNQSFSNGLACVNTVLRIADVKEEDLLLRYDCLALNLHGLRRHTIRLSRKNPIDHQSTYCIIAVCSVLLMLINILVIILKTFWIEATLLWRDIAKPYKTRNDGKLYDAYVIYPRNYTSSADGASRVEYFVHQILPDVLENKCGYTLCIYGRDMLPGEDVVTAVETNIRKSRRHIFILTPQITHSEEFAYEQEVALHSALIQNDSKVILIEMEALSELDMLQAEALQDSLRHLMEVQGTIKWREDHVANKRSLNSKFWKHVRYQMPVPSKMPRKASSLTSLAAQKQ

B1: Ab1 (antibody, human IgG2, kappa, V domains shown)
VH: QVQLVQSGAEVKKPGASVKVSCKVSGYTLTELSIHWVRQAPGKGLEWMGGFGPEDGETIYAQKFQGRVTMTEDTSTDTAYMELSSLRSEDTAVYYCTTEDSSGLFDYWGQGTLVTVSS
VL: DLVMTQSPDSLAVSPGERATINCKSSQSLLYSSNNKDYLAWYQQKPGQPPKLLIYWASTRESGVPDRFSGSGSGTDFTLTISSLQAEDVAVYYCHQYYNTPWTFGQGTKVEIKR
notes: fully human anti-ST2 antibody
B2: Ab4 (antibody, human IgG2, kappa, V domains shown)
VH: QVQLVQSGAEVKKPGASVKVSCEVSGFILTELSVNWVRQAPGKGLEWMGGFDPEDGKTIYAQKFQGRVTLTEDTSTDTAYMELSSLRSEDTAVYYCATWWDFHFDFWGQGTLVTVSS
VL: DFVMTQTPLSLSVTPGQPASISCKSSQSLLHSNGKTYLYWFLQKPGQPPQLLIYEVSNRFSGVPDRFSGSGSGTDFTLKISRVEAEDVGVYYCMQSIQLPLTFGGGTKVEIKR
notes: fully human anti-ST2 antibody
B3: Ab3 (antibody, human IgG2, kappa, V domains shown)
VH: EVQLVESGGGLVQPGGSLRLSCAASGFTFSTYDMHWIRQAPGKNLEWVSAIDLAGDTYYPGSVKGRFTISREDAKNSLYLQMNSLRAGDTAVYYCARGGDGYNYDYYGIDVWGQGTTVTVSS
VL: DIVMTQSPLSLPVTPGEPASISCRSSQSLLHSDGYHYLDWYLQKPGQSPQLLIYLGSNRASGVPDRFTGSGSGTDFTLKISRVEAEDVGVYYCMQALQILTFGGGTKVEIKR
notes: fully human anti-ST2 antibody
B4: Ab6 (antibody, human IgG2, kappa, V domains shown)
VH: B3 VH with I37V, A40T, P41T, N44G
VL: B3 VL with T68S, K79N, I99T
notes: fully human anti-ST2 antibody
B5: Ab7 (antibody, human IgG2, kappa, V domains shown)
VH: B3 VH with I37V, A40T, P41T, N44G
VL: B3 VL with T68S, K79N, I99T
notes: fully human anti-ST2 antibody
B6: Ab32 (antibody, human IgG2, kappa, V domains shown)
VH: EVQLVESGGGLVQPGGSLRLSCAASGFTFSTFDMHWVRQATGKGLEWVSSIDTEGDTYYSGSVKGRFTISRENARNSLYLQMNSLRAGDTAVYYCTRGEDWSDDDYYYGLDVWGQGTTVTVSS
VL: NIVMTQTPLSLSVTPGQPASISCKSSQSLLHSDGKTYLFWYLQKPGQPPQLLIYGVSNRFSGVPDRFSGSGSGTDFTLKISRVEAEDVGVYYCMQSLQLFTFGPGTKVEIKR
notes: fully human anti-ST2 antibody
B7: Ab33 (antibody, human IgG2, kappa, V domains shown)
VH: B6 VH with A40V, T41P, V48I, S60P
VL: B6 VL with Y92S, E109D
notes: fully human anti-ST2 antibody
B8: Ab30 (antibody, human IgG2, kappa, V domains shown)
VH: QVQLVESGGGVVQPGRSLRLSCTASGFTFSSHGMHWVRQAPGKGLEWVTIIWFDGNNKYYADSVEGRFTISRDNSKNTLFLQMNSLRAEDTAVYYCAREGAEQGFIDLWGRGTLVTVSS
VL: DIQMTQSPSSLSASVGDRVTITCQASQDISNYLNWYHQKPGKAPKLLIYDASNLETGVPSRFSGSGSGTDFTFTISGLQPEDIATYYCQQHDNLPLTFGGGTKVEIKR
notes: fully human anti-ST2 antibody
B9: Ab5 (antibody, human IgG2, kappa, V domains shown)
VH: EVQLVESGGGWVQPGGSLRLSCAASGFTFSSYDMYWVRQATGKGLEWVSGIDTVGDTYYPDSVKGRFTISRENAKNSVYLQMNTLRAGDTAVYYCVRGIYGDFYYYGLDVWGHGTTVTVSS
VL: B3 VL with H31Y, Y35N, H36N, Q50H, T68S, E86D, I99T

These binders were tested against T1, human ST2 (SPR analyte) (assay: SPR Biacore 4000, kd at pH 5.5 against kd at pH 7.4).
Description: (§1) The association (5 min) rates at pH 7.4 and dissociation (10 min) rates at pH 5.5 and 7.4 were monitored at a flow rate of 30 uL/min. The reference subtracted data was fit to a 1:1 model in Scrubber.

Binder | pH 5.5/pH 7.4 koff fold change [fold]
B1 | 88.1
B2 | 16.9
B3 | 2.9

The binders below were run against T1, human ST2 (SPR analyte) (assay: SPR Biacore 4000, association at pH 7.4, dissociation at pH 7.4 (estimated kd)).
Description: as §1

Binder | koff [s⁻¹]
B1 | 0.000134
B2 | 0.000632
B3 | 2.73e-05

Each binder was assayed against T1, human ST2 (SPR analyte) (assay: SPR Biacore 4000, association at pH 7.4, dissociation at pH 5.5 (estimated kd)).
Description: as §1

Binder | koff [s⁻¹]
B1 | 0.0118
B2 | 0.0107
B3 | 7.91e-05

What follows are binders tested against T2, biotinylated human ST2-Fc (assay: AlphaScreen, IL-33 mediated association of biotinylated human ST2-Fc with human AcP-FH, antibody at 12.5 ug/ml).
Description: In the second assay, antibodies were evaluated for the ability to inhibit the IL-33 mediated association of ST2 with the co-receptor AcP. […] The ST2/AcP AlphaScreen was conducted in 8 ul reactions in a 384 well optiplate (Perkin Elmer). […] After the addition of all assay components the plates were incubated overnight in the dark at room temperature. The next day the plates were read on a 2103 Envision multilable reader (Perkin Elmer) using the same parameters as above for the first assay.

Binder | % inhib ST2-AcP AS 12.5 ug/ml [%]
B1 | 86.9
B2 | 77.8
B4 | 71.2
B5 | 75.7
B3 | 68.7

The binders below were run against T3, soluble human ST2-FLAG His (assay: AlphaScreen, biotinylated human IL-33 with human ST2-FH, antibody at 12.5 ug/ml).

Binder | % inhib ST2-IL33 AS 12.5 ug/ml [%]
B1 | 98.1
B2 | 98.4
B4 | 98.5
B5 | 98.9
B3 | 98.8

Target: T4, cynomolgus monkey ST2 (SPR analyte)
Experiment: SPR Biacore 3000, captured antibody, ST2 analyte, 25 C

Binder | Kd [nM] | koff [s⁻¹] | kon [M⁻¹ s⁻¹]
B1 | 0.117 | 0.000197 | 1.69e+06
B2 | 0.516 | 0.00129 | 2.5e+06
B3 | 0.127 | 8.55e-05 | 674000

Each binder was assayed against T1, human ST2 (SPR analyte) in the same assay as above.

Binder | Kd [nM] | koff [s⁻¹] | kon [M⁻¹ s⁻¹]
B1 | 0.0777 | 0.000111 | 1.43e+06
B2 | 0.301 | 0.000706 | 2.35e+06
B3 | 0.238 | 9.5e-05 | 400000

Target: T4, cynomolgus monkey ST2 (SPR analyte)
Experiment: SPR ProteOn XPR-36, captured antibody, ST2 analyte, 25 C

Binder | Kd [nM]
B6 | 0.0558
B7 | 0.0776
B8 | 0.0102

What follows are binders tested against T1, human ST2 (SPR analyte) in the same assay as above.

Binder | Kd [nM]
B6 | 0.0602
B7 | 0.0844
B8 | 0.0097

Each binder was assayed against T5, human ST2 on human primary cells (assay: cell-based or functional assay).

Binder | IC-50, human eosinophil IL-8 release assay (IL-33 and IL-3 stimulation) [pM]
B1 | 51.5
B2 | 14.1
B4 | 63
B9 | 73.3
B5 | 40.7
B3 | 50.4

Target: T5, human ST2 on human primary cells
Experiment: cell-based or functional assay
Remark: another data set of the same source

Binder | IC50 of inhibition of human IL-33-induced IL-5 production from human CD4+ T cells [nM]
B1 | 10.7
B9 | 64.5

Target: T6, cynomolgus monkey ST2 on cynomolgus …
Experiment: cell-based or functional assay

Binder | IC-50, cynomolgus monkey CD4+ T cell IFNγ release assay (IL-33, IL-2 and IL-12p70 stimulation) [pM]
B1 | 15.8
B2 | 4.03
B4 | 47.1
B9 | 12.9
B5 | 40
B3 | 15.2
